Conditions: Saccharolobus solfataricus (strain ATCC 35092 / DSM 1617 / JCM 11322 / P2), Thermal, CD, phosphate 10 mM, reversible: yes, whole UniProt chain shown

B1: DNA-binding protein 7d wild type, P39476 (protein)
chain: MATVKFKYKGEEKEVDISKIKKVWRVGKMISFTYDEGGGKTGRGAVSEKDAPKELLQMLEKQKK
Tm (pH 3): 80 °C
unfolding enthalpy (van 't Hoff) (pH 3): 50.2 kcal/mol
Tm (pH 4): 95 °C
unfolding enthalpy (van 't Hoff) (pH 4): 57.4 kcal/mol
Tm (pH 5): 98.5 °C
unfolding enthalpy (van 't Hoff) (pH 5): 62.1 kcal/mol
Tm (pH 6): 99 °C
unfolding enthalpy (van 't Hoff) (pH 6): 64.5 kcal/mol
Tm (pH 7): 98 °C
unfolding enthalpy (van 't Hoff) (pH 7): 64.5 kcal/mol
Tm (pH 8): 97.5 °C
unfolding enthalpy (van 't Hoff) (pH 8): 62.1 kcal/mol
Tm (pH 9): 97 °C
unfolding enthalpy (van 't Hoff) (pH 9): 59.8 kcal/mol

— FireProtDB (doi:10.1021/bi034520t)
